Target: T1, exoplasmic domain of human CD40 (GST-CD40) (Homo sapiens, UniProt P25942)
T1 construct: The cDNA for the exoplasmic domain of CD40 (amino acids 20-212); made in house; host or cells: E. coli, pGEX-2T
Experiment: GST-CD40 binding and competition assay with recombinant Hsp70 and its domains
Conditions: ADP, 5-fold molar excess of competitor
Experimental: For binding assays with recombinant Hsp70 and its domains, 3 μM His6-Hsp70 or its His6-tagged domains were incubated with 2 mM ATP, 2 mM ADP or 2 mM ADP and 28 μM peptide C in 50 μl binding buffer (10 mM MOPS/KOH, pH 7.2, 150 mM KCl and 3 mM MgCl2) for 30 min at 37° C. In competition experiments binding was probed with either a 10-fold excess of Hsp70, the two domains, or DnaK, or with a 5-fold excess of Hip or Bag 1 for 10 min at 0° C. To this end, Hsp70, N70, C70 and DnaK were preincubated with ADP, ATP and peptide C as described above. […] 10 μl of the eluates were subjected to SDS-PAGE and analyzed by immunoblotting using a Penta-His-antibody (Quiagen). Blot signals were quantified by Quantity One (Biorad).
Details for FIG. 3. […] Thereafter samples were affinity purified on glutathione-Sepharose as outlined in Experimental Procedures, subjected to SDS-PAGE and analyzed by immunoblotting with antibodies directed against Hsc70 and Hsp70 (upper lanes), and against Hsp90 (lower lanes). […] After affinity purification samples were analyzed by immunoblotting as described in A, using antibodies directed against the His6-tag. […] Protein bound to Hsp70 was analyzed by affinity purification on Ni-NTA-agarose and immunoblotting with antibodies directed against CD40. […]
Details for FIG. 5. […] The lower panel is a quantitation of the data. […]

T1 sequence (P25942 20-212): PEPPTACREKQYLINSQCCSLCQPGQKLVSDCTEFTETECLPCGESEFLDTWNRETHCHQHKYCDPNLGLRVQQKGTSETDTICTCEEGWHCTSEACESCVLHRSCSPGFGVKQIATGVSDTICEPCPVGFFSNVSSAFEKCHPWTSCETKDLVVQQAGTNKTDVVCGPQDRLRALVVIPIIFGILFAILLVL

B1: Hip: Hsp70 cochaperone that stabilizes the ADP-state of Hsp70, recombinant His-tagged (protein, UniProt P50502 1-369, looked up)
Hsc70-interacting protein: MDPRKVNELRAFVKMCKQDPSVLHTEEMRFLREWVESMGGKVPPATQKAKSEENTKEEKPDSKKVEEDLKADEPSSEESDLEIDKEGVIEPDTDAPQEMGDENAEITEEMMDQANDKKVAAIEALNDGELQKAIDLFTDAIKLNPRLAILYAKRASVFVKLQKPNAAIRDCDRAIEINPDSAQPYKWRGKAHRLLGHWEEAAHDLALACKLDYDEDASAMLKEVQPRAQKIAEHRRKYERKREEREIKERIERVKKAREEHERAQREEEARRQSGAQYGSFPGGFPGGMPGNFPGGMPGMGGGMPGMAGMPGLNEILSDPEVLAAMQDPEVMVAFQDVAQNPANMSKYQSNPKVMNLISKLSAKFGGQA
modifications: His tag
notes: Hsp70 cochaperone that stabilizes the ADP-state of Hsp70, recombinant His-tagged
competition for the binding of full-length Hsp70 to CD40: acted as an effective competitor of the interaction

From patent US20040071656A1, “Modulation of heat-shock-protein-based immunotherapies” (priority 2001, published 2004)
